Measurements: US11505586B2, “Interaction of Draxin and γ-netrins” (Max-Planck-Gesellschaft zur Foerderung der Wissenschaften …, priority 2014, dated 2022)

Columns and labels:
recombinant human DCC = target: T1, recombinant human DCC (Homo sapiens, UniProt P43146); assay: Surface Plasmon Resonance; assay type: binding; conditions: Biacore 3000, Draxin 0-18.8 nM
T1 construct: made in house; host or cells: HEK293-6E
Method: (§1) Surface Plasmon Resonance (SPR) experiments were performed on a Biacore 3000 (GE Healthcare) at 25° C. using a SA sensor chip in 0.01 M HEPES, pH 7.4, 0.15 M NaCl, 0.005% Surfactant P20 (HBS-P) running buffer at a flow rate of 30 μl/min. The instrument was used according to manufacturer's instructions.
(§2) Recombinant human Draxin was purchased from R&D systems. Biotinylated recombinant human UNC5B, Netrin1 and DCC were produced recombinantly using the described mammalian expression system (HEK293-6E). Biotinylated proteins were immobilised on the SA coated sensor chip and Draxin was injected sequentially in increasing concentrations (0 nM, 1.2 nM. 2.3 nM, 4.7 nM, 9.4 nM, 18.8 nM) for 3 min. […] No binding of Draxin to UNC5B and DCC was detected (FIG. 14).

recombinant human UNC5B = target: T2, recombinant human UNC5B (Homo sapiens, UniProt Q8IZJ1); assay: Surface Plasmon Resonance; assay type: binding; conditions: Biacore 3000, Draxin 0-18.8 nM
T2 construct: made in house; host or cells: HEK293-6E
Method: as §1, §2

Netrin receptors = assay: AVEXIS direct binding to Netrin receptors; set-up: species or system zebrafish; conditions: AVEXIS platform
Source text: By using an AVEXIS-based competition assay (FIG. 6 A) we tested whether the binding of DraxinA to Netrin1a has an influence on Netrins ability to bind to Netrin receptors. First we confirmed that we reliably detected the binding of Netrin1a to Netrin receptors of the DCC/Neo1 and Unc5 families with the AVEXIS method. We also tested whether Draxin is able to bind to the corresponding Netrin receptors. […] This has also been confirmed by a recent publication (Haddick et al. 2014). In the competition assay the extracellular domains (ECDs) of Netrin receptors have been used as prey proteins together with purified full length DraxinA and probed for binding against Netrin1a bait proteins. […] The inhibition is specific for DraxinA.

T1 sequence (P43146 26-1097 limits assumed): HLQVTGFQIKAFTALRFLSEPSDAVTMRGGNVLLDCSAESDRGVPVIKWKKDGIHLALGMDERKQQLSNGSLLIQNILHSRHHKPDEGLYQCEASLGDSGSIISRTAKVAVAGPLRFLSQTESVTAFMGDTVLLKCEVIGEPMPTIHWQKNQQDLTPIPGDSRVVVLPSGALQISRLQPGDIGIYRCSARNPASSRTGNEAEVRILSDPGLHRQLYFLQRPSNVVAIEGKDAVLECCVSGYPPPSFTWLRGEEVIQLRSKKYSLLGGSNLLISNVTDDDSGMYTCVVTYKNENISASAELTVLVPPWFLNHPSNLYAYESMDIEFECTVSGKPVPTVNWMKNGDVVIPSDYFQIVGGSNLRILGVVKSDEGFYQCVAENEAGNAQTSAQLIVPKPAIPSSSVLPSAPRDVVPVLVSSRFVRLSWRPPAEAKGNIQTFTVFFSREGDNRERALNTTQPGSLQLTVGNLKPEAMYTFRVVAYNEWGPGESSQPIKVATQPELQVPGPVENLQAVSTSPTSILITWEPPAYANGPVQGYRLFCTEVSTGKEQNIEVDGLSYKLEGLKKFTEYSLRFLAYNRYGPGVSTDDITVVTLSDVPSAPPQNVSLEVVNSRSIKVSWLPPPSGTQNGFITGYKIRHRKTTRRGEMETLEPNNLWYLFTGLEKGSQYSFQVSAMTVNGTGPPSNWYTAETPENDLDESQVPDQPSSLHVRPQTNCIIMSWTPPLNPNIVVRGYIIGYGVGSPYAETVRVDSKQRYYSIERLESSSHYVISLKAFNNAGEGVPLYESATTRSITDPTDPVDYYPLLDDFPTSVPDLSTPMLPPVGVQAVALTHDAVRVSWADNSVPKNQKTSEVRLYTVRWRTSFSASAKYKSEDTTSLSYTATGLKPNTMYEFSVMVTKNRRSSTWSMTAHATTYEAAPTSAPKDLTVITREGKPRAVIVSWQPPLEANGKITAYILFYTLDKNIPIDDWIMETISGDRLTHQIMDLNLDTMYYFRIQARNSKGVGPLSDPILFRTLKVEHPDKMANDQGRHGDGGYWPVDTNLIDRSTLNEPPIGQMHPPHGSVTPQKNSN

B1: Draxin: Recombinant human Draxin purchased from R&D systems (protein, listed as Homo sapiens)
chain: MAGPAIHTAPMLFLVLLLPLELSLAGALAPGTPARNLPENHIDLPGPALWTPQASHHRRRGPGKKEWGPGLPSQAQDGAVVTATRQASRLPEAEGLLPEQSPAGLLQDKDLLLGLALPYPEKENRPPGWERTRKRSREHKRRRDRLRLHQGRALVRGPSSLMKKAELSEAQVLDAAMEESSTSLAPTMFFLTTFEAAPATEESLILPVTSLRPQQAQPRSDGEVMPTLDMALFDWTDYEDLKPDGWPSAKKKEKHRGKLSSDGNETSPAEGEPCDHHQDCLPGTCCDLREHLCTPHNRGLNNKCFDDCMCVEGLRCYAKFHRNRRVTRRKGRCVEPETANGDQGSFINV
binding to immobilised DCC (recombinant human DCC): No binding | binding to immobilised UNC5B (recombinant human UNC5B): No binding | direct binding to Netrin receptors (Netrin receptors): not able to detect direct binding
